Source: US20200361992A1 (PROTAGONIST THERAPEUTICS, published 2020)
Positions of bridges follow the written chain, without caps; N, C: chain ends. Non-standard residues stand in square brackets, D forms with d. Groups on a side chain read outwards from the residue. Primed or numbered codes have the meaning given here. *: point of attachment. PEG12 = NCCOCCOCCOCCOCCOCCOCCOCCOCCOCCOCCOCCOCCC(=O)O; Palmitoyl = CCCCCCCCCCCCCCCC(=O)*; Isovaleryl = CC(C)CC(=O)*; PEG2′ = not defined here; Ahx = NCCCCCC(=O)O; Sar = CNCC(=O)O

T1: human ferroportin (SLC40A1) fused with GFP, stably expressed in HEK293 cells (human, UniProt Q9NP59 1-571)
T1 sequence (looked up): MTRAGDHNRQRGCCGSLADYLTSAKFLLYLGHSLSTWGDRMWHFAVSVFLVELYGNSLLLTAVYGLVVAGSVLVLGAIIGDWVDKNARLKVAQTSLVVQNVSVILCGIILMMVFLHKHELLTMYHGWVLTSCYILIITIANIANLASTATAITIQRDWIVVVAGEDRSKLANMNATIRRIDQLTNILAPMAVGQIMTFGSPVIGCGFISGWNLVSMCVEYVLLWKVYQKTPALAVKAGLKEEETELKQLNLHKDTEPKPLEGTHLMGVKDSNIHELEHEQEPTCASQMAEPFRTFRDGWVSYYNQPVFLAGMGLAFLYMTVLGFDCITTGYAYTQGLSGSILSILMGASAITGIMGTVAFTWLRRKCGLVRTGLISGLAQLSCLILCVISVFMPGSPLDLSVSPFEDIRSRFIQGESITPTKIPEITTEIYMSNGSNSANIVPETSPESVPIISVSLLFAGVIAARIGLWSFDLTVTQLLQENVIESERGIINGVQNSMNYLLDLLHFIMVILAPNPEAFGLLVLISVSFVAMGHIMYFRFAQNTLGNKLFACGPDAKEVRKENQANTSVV


The binders below were run against T1, human ferroportin (SLC40A1) fused with … (assay: cell-based or functional assay).

Binder | FPN IC50
Isovaleryl-DTHFPCI[dK]FK([PEG12-Palmitoyl])RC-NH2 (disulfide 6-12 (inferred)) [Compd ID 79] | 22 nM
Isovaleryl-DTHFPCI[dK]FK([PEG12-Palmitoyl])CK-NH2 (disulfide 6-11 (inferred)) [Compd ID 78] | 17 nM
Isovaleryl-DTHFPCI[dK]FK([PEG12-Palmitoyl])PRCK-NH2 (disulfide 6-13 (inferred)) [Compd ID 77] | 15 nM
Isovaleryl-DTHFPCI[dK]FK([PEG2′-PEG2′-C18 acid])KC-NH2 (disulfide 6-12 (inferred)) [Compd ID 89] | 27 nM
DTHFPCIKFKPRSKC (Isovaleric acid-DTHFPCIKF-Lys[PEG11-Palm]-PRSKC-NH2) [Compd ID 4] | 32 nM
Isovaleryl-DTHFPCI[dK]FK([PEG12-Palmitoyl])RC[dR]-NH2 (disulfide 6-12 (inferred)) [Compd ID 85] | 27 nM
Isovaleryl-DTHFPCI[dK]FK([PEG12-Palmitoyl])KC[dK]-NH2 (disulfide 6-12 (inferred)) [Compd ID 83] | 40 nM
Isovaleryl-DTHFPCI[dK]FK([PEG12-Palmitoyl])PPRSCK-NH2 (disulfide 6-15 (inferred); not fully specified) [Compd ID 76] | 16 nM

Continued, values first:

FPN IC50 | Binder
14 nM | Isovaleryl-DTHFPCI[dK]FK([PEG12-Palmitoyl])KC-NH2 (disulfide 6-12 (inferred)) [Compd ID 80]
13 nM | Isovaleryl-DTHFPCI[dK]FK([PEG2′-PEG2′-Palmitoyl])KC-NH2 (disulfide 6-12 (inferred)) [Compd ID 88]
15 nM | Isovaleryl-DTHFPCI[dK]FK([PEG2′-Palmitoyl])KC-NH2 (disulfide 6-12 (inferred)) [Compd ID 87]
9 nM | Isovaleryl-DTHFPCI[dK]FK([PEG12-Palmitoyl])PRSK[Sar]C-NH2 (disulfide 6-16 (inferred)) [Compd ID 74]
9 nM | Isovaleryl-DTHFPCI[dK]FK([Ahx-Palmitoyl])KC-NH2 (disulfide 6-12 (inferred)) [Compd ID 86]
13 nM | Isovaleryl-DTHFPCI[dK]FK([PEG12-Palmitoyl])[dK]C-NH2 (disulfide 6-12 (inferred)) [Compd ID 82]
9 nM | Isovaleryl-DTHFPCI[dK]FK([PEG12-Palmitoyl])[dR]C-NH2 (disulfide 6-12 (inferred)) [Compd ID 81]
14 nM | Isovaleryl-DTHFPCI[dK]FK([PEG12-Palmitoyl])PRSKCK-NH2 (disulfide 6-15 (inferred)) [Compd ID 75]
30 nM | DTHFPCIKFKPRSC (Isovaleric acid-DTHFPCIKF-Lys[PEG11-Palm]-PRSC-NH2) [Compd ID 5]
16 nM | Isovaleryl-DTHFPCI[dK]FK([PEG12-Palmitoyl])HC[dH]-NH2 (disulfide 6-12 (inferred)) [Compd ID 84]
